Experimental data reported in US20110014669A1, “Production of 1,4 Butanediol in a Microorganism” (Microbia, Inc., priority 2009, published 2011).
Positions count from the first letter of the chain named. Where two headings read alike, the source gives them in different places.

B1: DhaTCf: Enzyme candidate for BDO biosynthetic pathway step A6, SEQ ID NO. 48 (protein, listed as Citrobacter freundii)
chain: MSYRMFDYLVPNVNFFGPNAISVVGERCKLLGGKKALLVTDKGLRAIKDGAVDKTLTHLREAGIDVVVFDGVEPNPKDTNVRDGLEVFRKEHCDIIVTVGGGSPHDCGKGIGIAATHEGDLYSYAGIETLTNPLPPIVAVNTTAGTASEVTRHCVLTNTKTKVKFVIVSWRNLPSVSINDPLLMLGKPAPLTAATGMDALTHAVEAYISKDANPVTDAAAIQAIRLIARNLRQAVALGSNLKARENMAYASLLAGMAFNNANLGYVHAMAHQLGGLYDMPHGVANAVLLPHVARYNLIANPEKFADIAEFMGENTDGLSTMDAAELAIHAIARLSADIGIPQHLRDLGVKEADFPYMAEMALKDGNAFSNPRKGNEKEIAEIFRQAF
B2: AdhBZm: Enzyme candidate for BDO biosynthetic pathway step A6, SEQ ID NO. 50 (protein, listed as Zymomonas mobilis)
chain: MASSTFYIPFVNEMGEGSLEKAIKDLNGSGFKNALIVSDAFMNKSGVVKQVADLLKAQGINSAVYDGVMPNPTVTAVLEGLKILKDNNSDFVISLGGGSPHDCAKAIALVATNGGEVKDYEGIDKSKKPALPLMSINTTAGTASEMTRFCIITDEVRHVKMAIVDRHVTPMVSVNDPLLMVGMPKGLTAATGMDALTHAFEAYSSTAATPITDACALKAASMIAKNLKTACDNGKDMPAREAMAYAQFLAGMAFNNASLGYVHAMAHQLGGYYNLPHGVCNAVLLPHVLAYNASVVAGRLKDVGVAMGLDIANLGDKEGAEATIQAVRDLAASIGIPANLTELGAKKEDVPLLADHALKDACALTNPRQGDQKEVEELFLSAF
B3: NosEAv: Enzyme candidate for BDO biosynthetic pathway step A3, SEQ ID NO. 20 (protein, listed as Anabaena variabilis)
chain: MPKAAVMSAPNQPVVVQQLPDPILEKGGIIVETLYSEVCGTDVHLLHGRLEGVPYPIIPGHFSVGRVVETGGAVSDVNSNLIQPGAIATFLDVHETCYNCWYCLVAKASTRCPQRKVYGVTYSAKEGLLGGWSELIYLKPGVKVLTLPAEVSPKQFIAGGCALPTALHAIDRAQIQIGDVVVVQGCGPVGLSVAILALLSGAGKVIVIDKFESRLAVAKSFGVDETLAIKADDPRQHIERVLELTNGHGADVIIEATGIPIAVKEGLNMTRNGGRYVIVGHYTNTGEILINPHLEINLKHIDIRGTWGIDFSHFYRMIELLKRHSDPKKNIAWENLISRSYTLNEINQALTDVERGSVLKAVIQPNLS
B4: NosEN: Enzyme candidate for BDO biosynthetic pathway step A3, SEQ ID NO. 16 (protein, listed as Nostoc sp.)
chain: MPLAAVMTAPNQPVEVQQLPDPILEKGGIILETLYSEVCGTDVHLLHGRLEGVPYPIIPGHFSVGRVVETGGAVSDVNGKLIQPGAIATFLDVHETCYNCWYCLVAKASTRCPQRKVYGVTYSAKDGLLGGWSELIYLKPGVKVLTLPEEVSPKQFIAGGCALPTALHAIDRAQIQIGDVVVVQGCGPVGLSAAILALLSGAGKVIVIDKFESRLVVAKSFGVDETLAIKADDPRQHIERVLELTNGHGADVTIEATGIPIAVKEGLNMTRNGGRYVIVGHYTNTGEILINPHLEINLKHIDIRGTWGIDFSHFYRMIELLKRHSDSSKNIAWSSIISRSYTLKEINQALADVEQGSVLKAVIQPNLS
B5: NosENp: nosE alcohol dehydrogenase from Nostoc punctiforme, step A3 enzyme candidate, SEQ ID NO. 18 (protein)
chain: B4 chain with D21E, L31I, Q114K, K230R, A351V
modifications: Nostoc punctiforme

What was measured:
[1] = test system: S. cerevisiae strains (CEN.PK and Fermentis); settings: 135 g/L of BDO
Experimental: (§4) For each experiment, 50 mL of media was filter-sterilized before adding to pre-sterilized 250 mL triple baffled shake flasks. […] Each strain was grown in four different shake flasks.
(§5) Inocula were freshly grown on agar plates, cotton swabbed into a sterile Falcon® tube containing the same medium used in the shake flask and mixed well. The cell suspension was then inoculated into the prepared shake flasks to initiate the growth evaluation. The growth for each strain was monitored by measuring the OD (at 660 nm) and pH over the time course. If the medium contained glucose, such as Difco® Yeast Malt medium (YM), glucose concentration was monitored by using a YSI 2700 Select Biochemistry Analyzer.
(§6) Since different media and growth conditions were used, results were expressed as % of growth where the control, no BDO flask, represented 100% growth.

[2] = test system: Corynebacterium glutamicum (ATCC 13032); settings: FIG. 12A
Experimental: as §4, §5, §6

[3] = test system: Pseudomonas putida (ATCC 700801)
Experimental: as §4, §5, §6

[4] = test system: Zygosaccharomyces bailii (ATCC 60594)
[5] = test system: Yarrowia lipolytica (ATCC 20228)
[6] = test system: Zymomonas mobilis (ATCC 31821); settings: 90 g/L and 135 g/L of BDO
Experimental: as §4, §5, §6

[7] = test system: 4-hydroxybutanal; assay: Enzyme assay, oxidoreductase (step A6), cell lysates; format: biochemical; set-up: key: +: measureable activity detected in the assay; −: no measurable activity detected in the assay; settings: BDO biosynthetic pathway step A6
Experimental: (§1) Enzyme expression and crude lysate preparation. The enzymatic activity of each candidate enzyme is evaluated, first in E. coli and subsequently in C. glutamicum. It will be apparent to one of skill in the art that the expression and lysate preparations may need to be modified depending on the host cell and recombinant gene of interest.
E. coli: E. coli strains transformed with expression clones, for example, pUC18 or MB4124 based clones having a medium strong constitutive promoter regulating the recombinant gene of interest, are grown aerobically in LB medium (Difco) containing the appropriate antibiotic(s). At an OD600 of 0.5, IPTG is added to a final concentration of 0.25 mM. The cultures are grown to a final OD600 of 1.5 at which time the cells are collected and harvested by centrifugation. Cell pellets are resuspended in BugBuster (Novagen) reagent containing benzonase and lysozyme. Alternatively, E. coli strains transformed with expression clones, are grown overnight aerobically at 37° C. in BHI containing the appropriate antibiotic(s). 300 μL of fresh overnight culture is used to inoculate 2.7 mL BHI containing 0.25 mM IPTG and the appropriate antibiotic. The cultures are grown aerobically for 4-5 hours at 37° C. at which time the cells are collected and harvested by centrifugation. Cell pellets are frozen at −80° C. for at least 15 minutes, then thawed and resuspended in BugBuster (Novagen) reagent. Lysis and lysate collection are performed according to the manufacturer's instructions and, for example, may involve use of a sonicator and/or French press. Cleared lysates are stored on ice until enzyme assays are performed. […]
(§2) Protein Assays. Protein concentrations in lysates are determined according to the methods of Bradford et al. (Anal. Biochem. 72:248-254 [1976]) or by the method of Smith et al. (Anal. Biochem. 150(1):76-85 [1985]) and lysates are assayed according to the methods below. […]

[8] = test system: L-glutamate 5-semialdehyde (GSA); assay: Bioconversion (feeding) assay, step A3; format: cell-based; set-up: key: +: measureable activity detected in the assay; −: no measurable activity detected in the assay; settings: BDO biosynthetic pathway step A3
Experimental: Bioconversion assays. The activity of a candidate enzyme towards a given substrate can also be evaluated in vivo using a simple feeding assay. A strain expressing the candidate enzyme is grown in the presence of the substrate for which activity is desired. Samples of the culture are removed periodically and the cells are removed via centrifugation. The culture supernatant is then analyzed (e.g., by LC-MS) to determine how much of the substrate has been removed and how much of a given product is present.
(§3) The aldehyde dehydrogenase linked reaction was used for step A5.

[9] = test system: L-glutamate 5-semialdehyde (GSA); assay: In vitro substrate conversion assay, step A3; format: biochemical; set-up: key: +: measureable activity detected in the assay; −: no measurable activity detected in the assay; settings: BDO biosynthetic pathway step A3
Experimental: In Vitro Substrate Conversion. Most of the enzyme assays described above are based on recording changes in absorbance at a given wavelength. In addition to such spectrophotometric readouts, these assays can also be analyzed by more direct methods using an endpoint assay where the reaction is terminated after a given period of time and the mixture is analyzed via HPLC or LC-MS methods.
as §3

[10] = test system: L-glutamate 5-semialdehyde (GSA); assay: Enzyme assay, oxidoreductase (step A3), cell lysates; format: biochemical; set-up: key: +: measureable activity detected in the assay; −: no measurable activity detected in the assay; settings: BDO biosynthetic pathway step A3
Experimental: as §1
E. coli: E. coli strains transformed with expression clones, for example, pUC18 or MB4124 based clones having a medium strong constitutive promoter regulating the recombinant gene of interest, are grown aerobically in LB medium (Difco) containing the appropriate antibiotic(s). At an OD600 of 0.5, IPTG is added to a final concentration of 0.25 mM. The cultures are grown to a final OD600 of 1.5 at which time the cells are collected and harvested by centrifugation. Cell pellets are resuspended in BugBuster (Novagen) reagent containing benzonase and lysozyme. Alternatively, E. coli strains transformed with expression clones, are grown overnight aerobically at 37° C. in BHI containing the appropriate antibiotic(s). 300 μL of fresh overnight culture is used to inoculate 2.7 mL BHI containing 0.25 mM IPTG and the appropriate antibiotic. The cultures are grown aerobically for 4-5 hours at 37° C. at which time the cells are collected and harvested by centrifugation. Cell pellets are frozen at −80° C. for at least 15 minutes, then thawed and resuspended in BugBuster (Novagen) reagent. Lysis and lysate collection are performed according to the manufacturer's instructions and, for example, may involve use of a sonicator and/or French press. Cleared lysates are stored on ice until enzyme assays are performed.
C. glutamicum: C. glutamicum strains transformed with MB4124 expression clones containing the recombinant gene of interest are grown aerobically in BHI broth supplemented with the proper antibiotic(s). At an OD600 of 0.5, IPTG is added to a final concentration of 0.25 mM. The cultures are grown to a final OD600 of 1.5 at which time the cells are collected and harvested by centrifugation. The pellet is washed once in one volume of water and resuspended in lysis buffer (1.0 ml 1.0 M HEPES buffer, pH 7.5, 0.5 ml 1M KOH, 10 μl 0.5M EDTA, protease inhibitor cocktail, water to 5 ml; the final pH will vary depending on the individual enzyme being tested) and one volume of 0.1 mm acid washed glass beads. The mixture is repeatedly alternately vortexed and held on ice for 15 seconds, eight times. After centrifugation for 5 min at 4,000 rpm, the supernatant lysate is removed and respun for 20 min at 10,000 rpm. Alternatively, C. glutamicum strains transformed with MB4124 expression clones containing the recombinant gene of interest are grown aerobically overnight in BHI broth supplemented with the proper antibiotic(s). Five mL of fresh overnight culture is used to inoculate 200 mL BHI containing 0.25 mM IPTG and the appropriate antibiotic. The cultures are grown aerobically at 30° C. for 5-7 hours at which time the cells are collected and harvested by centrifugation at 4° C. The pellet is resuspended in 15 mL ice cold 39 mM KH2PO4, 61 mM K2HPO4, 0.5 M KCl and lysed using a BioSpec BeadBeater and following the manufacturer's instructions. […]
as §2

[11] = 90 g/L and 135 g/L of BDO, loss of cell viability

Molecule	Enzyme Assay [7]	Bioconversion Assay [8]	In Vitro Substrate Conversion Assay [9]	Enzyme Assay [10]	further results
OCCCCO [BDO, 1,4-butanediol]					tolerance to BDO [1]: greater tolerance than E. coli; growth in the presence of BDO ([2]; 90 g/L and 135 g/L of BDO): grew better than the rest of strains; growth in the presence of BDO ([2]; 135 g/L BDO, compared with Z. mobilis): grew better than Z. mobilis; cell density in the presence of BDO ([3]; 20 g/L of BDO, relative to no-BDO control): approximately twice of the control; growth in the presence of BDO ([3]; 90 g/L and 135 g/L BDO, FIG. 12B): grew poorly; growth in the presence of BDO ([4]; 20 g/L of BDO): able to grow; growth in the presence of BDO [4, 11]: completely inhibited growth; growth in the presence of BDO ([5]; 20 g/L of BDO): able to grow; growth in the presence of BDO [5, 11]: completely inhibited growth; growth in the presence of BDO [6]: grew better than the rest of strains
B1	−				
B2	+				
B3		+	+	−	
B4		+	+	−	
B5		+	+	+	
